Results on one molecule are retold here after patent publication US20220396618A1 (RESEARCH FOUNDATION FOR THE STATE UNIVERSITY OF NEW YORK, published 2022).

For assay [1], the target named is T1, human RAGE R216A-R218A mutant (human, UniProt Q15109 23-342).
T1 construct: extracellular domain; Mutant of the human RAGE extracellular domain, immobilized for ELISA
Briefly: ELISA on immobilized antigen. The protocol: As shown in the dashed oval, the epitope of B2 mAb includes R216 and R218. Panel B depicts the binding of B2 mAbs to immobilized WT human RAGE or the R216A-R218A mutant as determined by ELISA. The binding of B2 mAbs to R216A-R218A was reduced by 40-fold.
200 ng of human RAGE extracellular domain or R216A-R218A mutant were immobilized onto 96-well high-binding ELISA plate. Plates were blocked with 5% BSA in PBS and incubated with 0.01 to 10 nM of rabbit B2 mAb for 1 hour at room temperature. Bound B2 mAbs were quantitated with anti-rabbit-HRP (Jackson Immunology) followed by the addition of HRP substrate (Thermo Scientific).
On the technique in general: ELISA stands for enzyme-linked immunosorbent assay.

For another assay, the target named is T2, murine RAGE V-C1 domain (murine, UniProt Q62151 23-231, limits assumed).
T2 construct: domain: V-C1 domain; Used as the immunogen and as the ELISA antigen; also called mVC1; WT mVC1
T2 sequence (Q62151 23-231 limits assumed): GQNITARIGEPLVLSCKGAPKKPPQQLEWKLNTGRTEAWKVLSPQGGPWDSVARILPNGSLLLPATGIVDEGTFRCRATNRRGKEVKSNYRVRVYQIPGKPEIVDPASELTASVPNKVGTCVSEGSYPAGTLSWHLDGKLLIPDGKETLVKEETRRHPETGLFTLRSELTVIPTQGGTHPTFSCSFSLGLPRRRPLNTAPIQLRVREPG
Briefly: ELISA, apparent Kd.

For assay [2], the target named is T3, human RAGE extracellular domain (human, UniProt Q15109 23-342).
T3 construct: extracellular domain; Immobilized on ELISA plates; also called WT human RAGE
T3 sequence (Q15109 23-342): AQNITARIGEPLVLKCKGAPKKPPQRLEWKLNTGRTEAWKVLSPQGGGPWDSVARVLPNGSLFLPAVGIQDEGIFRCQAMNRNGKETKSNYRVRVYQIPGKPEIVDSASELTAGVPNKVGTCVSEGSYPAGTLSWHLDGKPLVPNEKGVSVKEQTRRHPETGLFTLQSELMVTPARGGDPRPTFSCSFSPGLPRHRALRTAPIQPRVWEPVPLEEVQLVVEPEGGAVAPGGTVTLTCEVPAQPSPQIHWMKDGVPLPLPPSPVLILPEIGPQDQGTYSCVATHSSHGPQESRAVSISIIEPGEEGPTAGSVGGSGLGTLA
Briefly: ELISA, apparent Kd.

The target of the next assay is murine RAGE (murine, UniProt Q62151 23-231, limits assumed). Description: ELISA, apparent Kd.
murine RAGE, sequence (Q62151 23-231 limits assumed): as the sequence (Q62151 23-231 limits assumed) above

T1 sequence (Q15109 23-342 R216A/R218A): as the sequence (Q15109 23-342) above, with R194A, R196A counted along it

B1: rabbit B2 mAb (antibody, V domains shown)
VH: QSVKESEGGLFKPTDTLTLTCTVSGFTISSYDMSWVRQAPGKGLEWIGAIDSSGSAHYASWARSRSTITRNTNLNTVTLKMTSLTAADTATYFCWNANIWGPGTLVTVSS
VL: AQVLTQTASPVSAAVGSTVTINCQASQNVYDNNHLSWYQQKRGQPPKLLIYYASALASGVSSRFKGSGSGTQFTLTINDVQCDDAATYYCLGSYDCSADCFAFGGGTEVVV
notes: Rabbit monoclonal antibody from a hybridoma; also called B2 mAbs; rabbit mAb B2
Take B1: the “fold reduction of binding against WT human RAGE” value in assay [1] was 40 fold. Besides, the Kd in the assay with murine RAGE V-C1 domain was 0.08 nM; in assay [2], 0.08 nM; with murine RAGE, 0.03 nM.
